Experimental data reported in the supplement of paper PMC7877785.
± gives the uncertainty stated by the source.

Assay: self-splicing fitness, log relative to wild type (ln ratio); higher = more splicing; Tetrahymena group I intron in knt gene, E. coli kanamycin selection, DiMSum; sequences stand for … in CUCUCU…GGAGGGAAAAGUUAUCAGGCAUGCACCUGGUAGCUAGUCUUUAAACCAAUAGAUUGCAUCGGUUUAAAAGGCAAGACCGUCAAAUUGCGGGAAAGGGGUCAACAGCCGUUCAGUACCAAGUCUCAGGGGAAACUUUGAGAUGGCCUUGCAAAGGGUAUGGUAAUAAGCUGACGGACAUGGUCCUAACCACGCAGCCAAGUCCUAAGUCAACAGAUCUUCUGUUGAUAUGGAUGCAGUUCACAGACUAAAUGUCGGUCGGGGAAGAUGUAUUCUUCUCAUAAGAUAUAGUCGGACCUCUCCUUAAUGGGAGCUAGCGGAUGAAGUGAUGCAACACUGGAGCCGCUGGGAACUAAUUUGUAUGCGAAAGUAUAUUGAUUAGUUUUGGAGUACUCGUGGUCG
Outline: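 Six replicate transformations of E. coli BL21(DE3) with a pET-22b(+) library were grown overnight at 37°C or 30°C. The library randomised all eight P1ex-region intron nucleotides, the intron lying in the knt kanamycin-resistance gene, and plates were LB agar with or without 25 μg/mL kanamycin plus 100 μg/mL carbenicillin, 50 μM IPTG and 0.2% rhamnose. Pooled colonies were amplicon-sequenced on an Illumina HiSeq 2500, and fitness is the DiMSum error-weighted combination of wild-type-normalised replicate fold changes, kanamycin versus none.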

Sequence: GUUUAGCAAUAUUACGAGCG
- self-splicing fitness (ln) (30 °C): -1.6 ± 0.12
- self-splicing fitness (ln) (37 °C): -0.465 ± 0.12

Sequence: GUUUAGCAAUAUUACGAGUC
- self-splicing fitness (ln) (37 °C): -0.725 ± 0.21

Sequence: GUUUAGCAAUAUUACGAUCA
- self-splicing fitness (ln) (30 °C): -1.38 ± 0.31
- self-splicing fitness (ln) (37 °C): -0.619 ± 0.16

Sequence: GUUUAGCAAUAUUACGCACA
- self-splicing fitness (ln) (30 °C): -0.867 ± 0.12
- self-splicing fitness (ln) (37 °C): -0.0205 ± 0.14

Sequence: GUUUAGCAAUAUUACGCAUA
- self-splicing fitness (ln) (30 °C): -1.69 ± 0.18
- self-splicing fitness (ln) (37 °C): -1.19 ± 0.19

Sequence: GUUUAGCAAUAUUACGCAUC
- self-splicing fitness (ln) (30 °C): -1.28 ± 0.14
- self-splicing fitness (ln) (37 °C): -1.04 ± 0.19

Sequence: GUUUAGCAAUAUUACGCCCG
- self-splicing fitness (ln) (30 °C): -3.02 ± 0.24
- self-splicing fitness (ln) (37 °C): -1.18 ± 0.24

Sequence: GUUUAGCAAUAUUACGCGUC
- self-splicing fitness (ln) (30 °C): -1.79 ± 0.24
- self-splicing fitness (ln) (37 °C): -0.647 ± 0.24

Sequence: GUUUAGCAAUAUUACGCGUU
- self-splicing fitness (ln) (30 °C): -1.75 ± 0.16
- self-splicing fitness (ln) (37 °C): -0.943 ± 0.2

Sequence: GUUUAGCAAUAUUACGCUCU
- self-splicing fitness (ln) (30 °C): -0.694 ± 0.091
- self-splicing fitness (ln) (37 °C): -0.764 ± 0.11

Sequence: GUUUAGCAAUAUUACGCUUA
- self-splicing fitness (ln) (30 °C): -1.24 ± 0.15
- self-splicing fitness (ln) (37 °C): -0.129 ± 0.12

Sequence: GUUUAGCAAUAUUACGCUUU
- self-splicing fitness (ln) (30 °C): -2.38 ± 0.25
- self-splicing fitness (ln) (37 °C): -0.513 ± 0.22

Sequence: GUUUAGCAAUAUUACGGAAU
- self-splicing fitness (ln) (30 °C): -2.56 ± 0.31
- self-splicing fitness (ln) (37 °C): -1.26 ± 0.31

Sequence: GUUUAGCAAUAUUACGGCAG
- self-splicing fitness (ln) (30 °C): -2.12 ± 0.26
- self-splicing fitness (ln) (37 °C): -1.66 ± 0.38

Sequence: GUUUAGCAAUAUUACGGCCU
- self-splicing fitness (ln) (30 °C): -0.716 ± 0.15
- self-splicing fitness (ln) (37 °C): 0.714 ± 0.15

Sequence: GUUUAGCAAUAUUACGGCUG
- self-splicing fitness (ln) (30 °C): -1.79 ± 0.1
- self-splicing fitness (ln) (37 °C): -0.169 ± 0.17

Sequence: GUUUAGCAAUAUUACGGGCA
- self-splicing fitness (ln) (30 °C): -1.85 ± 0.17
- self-splicing fitness (ln) (37 °C): -0.96 ± 0.15

Sequence: GUUUAGCAAUAUUACGGGCU
- self-splicing fitness (ln) (30 °C): -3.45 ± 0.34
- self-splicing fitness (ln) (37 °C): -0.606 ± 0.2

Sequence: GUUUAGCAAUAUUACGGGGU
- self-splicing fitness (ln) (30 °C): -3.3 ± 0.35
- self-splicing fitness (ln) (37 °C): -2.29 ± 0.2

Sequence: GUUUAGCAAUAUUACGGGUA
- self-splicing fitness (ln) (30 °C): -3 ± 0.24
- self-splicing fitness (ln) (37 °C): -1.61 ± 0.17

Sequence: GUUUAGCAAUAUUACGUAAG
- self-splicing fitness (ln) (30 °C): -0.762 ± 0.085
- self-splicing fitness (ln) (37 °C): 0.076 ± 0.15

Sequence: GUUUAGCAAUAUUACGUCGC
- self-splicing fitness (ln) (30 °C): -1.67 ± 0.16
- self-splicing fitness (ln) (37 °C): -0.462 ± 0.18

Sequence: GUUUAGCAAUAUUACGUGCU
- self-splicing fitness (ln) (30 °C): -2.18 ± 0.16
- self-splicing fitness (ln) (37 °C): -1.31 ± 0.17

Sequence: GUUUAGCAAUAUUACGUGGG
- self-splicing fitness (ln) (30 °C): -3.78 ± 0.37
- self-splicing fitness (ln) (37 °C): -2.45 ± 0.23

Sequence: GUUUAGCAAUAUUACGUGGU
- self-splicing fitness (ln) (37 °C): -1.23 ± 0.44

Sequence: UAAAAGCAAUAUUACGAGAU
- self-splicing fitness (ln) (30 °C): -3.14 ± 0.13
- self-splicing fitness (ln) (37 °C): -2.98 ± 0.2

Sequence: UAAAAGCAAUAUUACGAUUU
- self-splicing fitness (ln) (30 °C): -1.36 ± 0.11
- self-splicing fitness (ln) (37 °C): -0.59 ± 0.11

Sequence: UAAAAGCAAUAUUACGCAAC
- self-splicing fitness (ln) (30 °C): -4.54 ± 0.34
- self-splicing fitness (ln) (37 °C): -2.13 ± 0.21

Sequence: UAAAAGCAAUAUUACGCAUC
- self-splicing fitness (ln) (30 °C): -2.95 ± 0.15
- self-splicing fitness (ln) (37 °C): -2.36 ± 0.21

Sequence: UAAAAGCAAUAUUACGCCCG
- self-splicing fitness (ln) (30 °C): -0.0582 ± 0.21
- self-splicing fitness (ln) (37 °C): 0.323 ± 0.23

Sequence: UAAAAGCAAUAUUACGCCUC
- self-splicing fitness (ln) (30 °C): -2.82 ± 0.43

Sequence: UAAAAGCAAUAUUACGGAAG
- self-splicing fitness (ln) (30 °C): -2.03 ± 0.15
- self-splicing fitness (ln) (37 °C): -0.624 ± 0.15

Sequence: UAAAAGCAAUAUUACGGGCG
- self-splicing fitness (ln) (30 °C): -0.0526 ± 0.069
- self-splicing fitness (ln) (37 °C): 0.305 ± 0.076

Sequence: UAAAAGCAAUAUUACGGGUC
- self-splicing fitness (ln) (30 °C): -3.09 ± 0.25
- self-splicing fitness (ln) (37 °C): -2.82 ± 0.27

Sequence: UAAAAGCAAUAUUACGGGUU
- self-splicing fitness (ln) (30 °C): -3.85 ± 0.28
- self-splicing fitness (ln) (37 °C): -1.48 ± 0.12

Sequence: UAAAAGCAAUAUUACGUCCU
- self-splicing fitness (ln) (30 °C): -0.564 ± 0.095
- self-splicing fitness (ln) (37 °C): 0.00684 ± 0.13

Sequence: UAAAAGCAAUAUUACGUCGU
- self-splicing fitness (ln) (30 °C): -3.29 ± 0.13
- self-splicing fitness (ln) (37 °C): -2.17 ± 0.11

Sequence: UAAAAGCAAUAUUACGUCUC
- self-splicing fitness (ln) (30 °C): -3.48 ± 0.17
- self-splicing fitness (ln) (37 °C): -3 ± 0.17

Sequence: UAAAAGCAAUAUUACGUGAA
- self-splicing fitness (ln) (30 °C): -1.36 ± 0.082
- self-splicing fitness (ln) (37 °C): -1.06 ± 0.1
